Assay results reported in PMC10368991, “LolA and LolB from the plant-pathogen Xanthomonas campestris forms a stable heterodimeric complex in the absence of lipoprotein” (Frontiers in Microbiology, 2023).

Biological target: T1, Xanthomonas campestris pv. campestris (Xcc) LolB, periplasmic variant (Xanthomonas campestris pv. campestris …)
T1 chain: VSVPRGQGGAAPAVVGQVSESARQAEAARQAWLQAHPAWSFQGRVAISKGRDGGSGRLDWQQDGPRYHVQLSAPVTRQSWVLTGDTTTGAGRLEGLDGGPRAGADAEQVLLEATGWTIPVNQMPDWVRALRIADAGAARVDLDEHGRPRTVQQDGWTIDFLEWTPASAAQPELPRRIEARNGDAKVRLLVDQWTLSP
Assay: ITC; LolA 1 mM in the syringe, LolB 0.1 (unit inferred) in the cell; 25.0 °C; 20 mM TRIS-HCl pH 7.8, 150 mM NaCl, 5% glycerol; 1:1 binding model; triplicate
Conditions: both partners purified

B1: Xanthomonas campestris pv. campestris (Xcc) LolA (natural protein)
chain: GARQELDTFTRGLKGLDGQFSQRVTDANGRVKENSSGRVALATPRQFRWEYAKPYKQLIVADGKKVWVFDPDLEQVTVRAQGSEEQNSPLVALIDPTRLDKQYDVSEEAAPRDGLQWLSLTPKVDTDASFQMASLGFGKDGLAKMEVVDAVGQRTAISFSGWKRNPAFAADTFRYTPGKGVDVVGDAQ
For B1, the Kd was 14.6 ± 1 µM, the dH was -1.63 ± 0.03 kcal/mol and the “stoichiometry N” value was 0.96 ± 0.04.
